This is an account of results in patent US20050222036A1, “Peptide compositions with effects on blood glucose” (priority 2000, published 2005).

Holding throughout (assay type): in vivo, rat
Data set [1] concerns rats. The data set can be described thus: Elevated plus maze test (anxiogenic effects). The arrangement: TIME Open Arm / TIME Closed Arm: unit not given here. On the procedure: (§1) The elevated plus maze consists of two open and two closed arms; time spent and the number of entries into open arms are indicators of neophobic anxiety in rats. The number of entries and total time spent in the open arms were tabulated over 5 min by an observer blind to the experimental condition. Animals falling off the apparatus were eliminated from the study. For the intracerebroventricular (i.c.v.) studies, rats were implanted with a cannula (22 gauge, Plastics One, Roanoke, Va.) into the left ventricle (AP 0.8 mm, ML 1.6 mm, DV 3.5 mm from dura) then allowed at least 3-4 days to recover. The peptides were infused in a total volume of 2 μl (1 μl min −1) 25 min before training with two trials per day for 5 days. The visual platform test was conducted after the last training trial on day 5 in a different location of the pool.

Data set [2] can be described thus: Blood glucose in fasting rats. The conditions noted are these: for blood glucose: intra-nasal.
Data set [3] deals with rats. Kind of data set: Morris Water Maze (MWM), spatial learning in rats. The method, then: Spatial learning was assessed using the Morris Water Maze (Morris et al. Nature, 1982, 297: 681). Information was relayed via a tracker (HSV Image, Hampton, UK) to a personal computer, which was quantified by a specialized computer program (Water 2020, Hampton, UK). The acquisition study was performed as described previously. Animals were anaesthetized with isofluorane then administered peptide intra-nasally 20 min before testing. Rats were given four training trials. 48 h after training, a retention test was performed: rats were allowed to find the hidden platform for one trial. Mice initially had six trials without treatment to habituate them to the procedure. The following day, they were administered vehicle or [Ser(2)]exendin(1-9) (SEQ ID NO:1) and trained for an additional four trials with the platform in a new location. For a retention test, mice were given one trial to locate the platform the next day. Latency to find the platform was considered a measure of retention of spatial learning.
as §1
In another series of experiments, rats (N=15-16) were pretreated with either Gilatide (10 μg/kg, 30 μg/kg, or 60 μg/kg) or vehicle and then trained for four trials in a Morris Water Maze. Two days following training, the rats were retested. Latency to find a submerged platform in the Morris Water Maze paradigm was measured.
Clinically approved treatments for cognitive impairment act primarily on the cholinergic system. The effects of intranasal GLP-1 and [Ser(2)]exendin(1-9) were compared with that of the cholinergic agonist arecoline on spatial learning in a modified version of the MWM (Setlow, B. et al. Learn. Mem, 2000. 7: 187). Rats were first administered vehicle, [Ser(2)]exendin(1-9), GLP-1 or arecoline, and trained for four trials to locate a submerged platform. They were then tested in a single retention trial 48 hours after initial training. There were no differences between treatments in acquisition (FIG. 10A).

Data set [4] relates to rats. The data set can be described thus: Elevated plus maze test (anxiogenic effects). Also on record: TIME Open Arm / TIME Closed Arm: unit not given here. Particulars: 10 ng ICV.
The nature of data set [5]: Blood glucose in fasting rats. Particulars: 24 hour fasting rats, 100 ug intraperitoneal, 20 minutes after administration. On the procedure:
Gilatide administered intraperitoneally (IP), but not intranasally (IN), lowers blood glucose levels in rats fasted for 24 hours. […] Gilatide's effect on blood glucose in fasting rats was measured. Groups of 24 hour fasting rats (n=5 or 6) were delivered either vehicle, insulin, Gilatide, GLP-1, exendin-4, Insulin A-chain, Insulin B-chain or C-peptide. Glucose levels were measured 20 minutes following intraperitoneal administration. All peptides were given at a dose of 100 ug (Table 2). In this experiment, insulin, the positive control, led to a 44% drop in blood glucose. Gilatide led to a significant drop in glucose level by 14%.

In the case of “HAEGTFTSDVSSVLEGQAAKEFIAWLVKGR [GLP-1, glucagon-like peptide 1]”, the “ENTRIES Closed Arm” value is 4.8 ± 1.0 in data set [1] (10 μg IN), 2.1 ± 0.4 in data set [1] (30 μg IN) and 2.7 ± 0.5 in data set [4]. Further, the “ENTRIES Open Arm” value is 1.11 ± 0.3 in data set [1] (10 μg IN), 1.33 ± 0.4 in data set [1] (30 μg IN) and 0.7 ± 0.4 in data set [4]. Also, the results for the “TIME Closed Arm” value in data set [1] (10 μg IN), in data set [1] (30 μg IN) and in data set [4] were 171.8 ± 10^+, 197.2 ± 18 and 198.3 ± 29, respectively. The “TIME Open Arm” value came to 11.6 ± 4 in data set [1] (10 μg IN), 22.1 ± 10 in data set [1] (30 μg IN) and 16.7 ± 11 in data set [4]. In data set [1] (intranasal), the “anxiogenic effect, time spent in closed arms” value is listed as “anxiogenic”. Moreover, the results for the blood glucose in data set [2] (3 μg), in data set [2] (10 μg) and in data set [2] (30 μg) were 73.8 ± 2.2 P < 0.05 mg/dl, 70.6 ± 2.5 P < 0.01 mg/dl and 71.2 ± 2.1 P < 0.05 mg/dl, respectively. Besides, the “fasting blood glucose levels” value in data set [2] (intranasal) was “lowered fasting blood glucose levels”. Moreover, the “latency (not shown)” value in data set [3] (100 ng i.c.v.) is “decrease latency”. Besides, in data set [3] (i.c.v., vs control rats), the “distance traveled to locate the platform” value was “significantly reduced distance traveled”. For the same sequence, the swimming speed entry in data set [3] (i.c.v., vs vehicle) is “decrease swimming speed”. Further, the “acquisition of spatial learning” value in data set [3] (modified MWM, intranasal (arecoline s.c.), four trials) is “did not affect acquisition of spatial learning”. For the same sequence, in data set [5], the “Blood glucose mean ± s.e.m.” value was determined as 89.5 ± 1.1 mg/dL.
